# According to publication PMC8229532 (Structure (London, England : 1993), 2010):
# B1: Phd (prevents host death) antitoxin of bacteriophage P1 (natural protein, UniProt Q06253 1-73, looked up)
# chain: MQSINFRTARGNLSEVMNNVEAGEEVEITRRGREPAVIASKATFEAYKKAALDAEFASLFDTLDSTNKELVNR
# modifications: selenomethionine (expressed in MJ9 minimal medium supplemented with selenomethionine)
# Biological target: the molecule itself
# Test: crystal structure
protein,measurement,value
B1,binding result,binds
